The text below walks through data of US20240294614A1 (ACADEMY OF MILITARY MEDICAL SCIENCE PLA, published 2024).

Read-outs that look alike come from different tables or passages of the source.

For test [1], the target named is T1, Nipah virus Malaysia strain glycoprotein G (Nipah virus, Malaysia strain (NiV-MY), UniProt Q9IH62 71-602).
T1 sequence: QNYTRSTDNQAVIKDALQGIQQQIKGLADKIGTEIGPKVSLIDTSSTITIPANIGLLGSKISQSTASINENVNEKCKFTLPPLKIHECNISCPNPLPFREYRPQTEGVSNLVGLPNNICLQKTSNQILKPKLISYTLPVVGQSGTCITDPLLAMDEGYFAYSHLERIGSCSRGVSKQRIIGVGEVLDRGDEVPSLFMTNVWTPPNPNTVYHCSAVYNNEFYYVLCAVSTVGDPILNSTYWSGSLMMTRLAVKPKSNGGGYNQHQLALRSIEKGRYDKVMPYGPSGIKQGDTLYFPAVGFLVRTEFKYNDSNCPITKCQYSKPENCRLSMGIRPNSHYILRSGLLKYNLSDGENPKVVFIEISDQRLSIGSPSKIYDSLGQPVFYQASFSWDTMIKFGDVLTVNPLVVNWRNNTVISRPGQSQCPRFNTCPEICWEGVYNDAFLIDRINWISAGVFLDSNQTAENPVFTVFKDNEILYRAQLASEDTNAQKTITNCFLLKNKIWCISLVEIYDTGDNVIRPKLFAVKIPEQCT
The experiment in a line: ELISA, G protein coated at 1 µg/mL, antibody 1:3 dilutions from 20 µg/mL.

Test [2] has as its target T2, Hendra virus glycoprotein G (Hendra virus (HeV), UniProt O89343 71-604).
T2 sequence: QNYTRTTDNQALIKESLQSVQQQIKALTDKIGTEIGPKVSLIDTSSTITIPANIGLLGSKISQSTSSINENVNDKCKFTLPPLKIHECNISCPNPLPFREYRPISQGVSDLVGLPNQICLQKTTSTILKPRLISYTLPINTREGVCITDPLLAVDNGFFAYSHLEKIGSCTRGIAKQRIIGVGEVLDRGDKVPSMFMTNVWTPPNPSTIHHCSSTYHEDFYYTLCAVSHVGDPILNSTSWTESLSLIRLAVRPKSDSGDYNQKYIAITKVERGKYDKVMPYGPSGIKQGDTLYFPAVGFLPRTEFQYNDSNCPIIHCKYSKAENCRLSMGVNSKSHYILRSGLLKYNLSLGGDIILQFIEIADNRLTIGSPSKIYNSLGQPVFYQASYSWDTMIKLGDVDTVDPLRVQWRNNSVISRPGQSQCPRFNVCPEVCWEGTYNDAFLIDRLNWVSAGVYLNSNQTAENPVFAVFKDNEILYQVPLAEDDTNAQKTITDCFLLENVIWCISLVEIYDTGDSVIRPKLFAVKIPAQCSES
The description is as above.

The target in test [3] is T1, Nipah virus Malaysia strain …. The experiment in a line: cell-based or functional assay.
The target of test [4] is T2, Hendra virus glycoprotein G. In words: cell-based or functional assay.
Test [5] has as its target Nipah virus Bangladesh strain glycoprotein G (Nipah virus, Bangladesh strain (NiV-BD)). In words: cell-based or functional assay.
The target is the same in test [6]. In words: ELISA, G protein coated at 1 µg/mL, antibody 1:3 dilutions from 20 µg/mL.
In test [7] the target is T1, Nipah virus Malaysia strain ….
Test [8] deals with Nipah virus Bangladesh strain glycoprotein G (Nipah virus, Bangladesh strain (NiV-BD)).
Test [9] deals with T1, Nipah virus Malaysia strain …. The source holds these as a separate data set.
The target in test [10] is T2, Hendra virus glycoprotein G.
Test [11] has as its target Nipah virus Bangladesh strain glycoprotein G (Nipah virus, Bangladesh strain (NiV-BD)). This is another data set of the same source.
Test [12] deals with T1, Nipah virus Malaysia strain …. The source holds these as a separate data set.
For test [13], the target named is T2, Hendra virus glycoprotein G. This is another data set of the same source.
Test [14] deals with Nipah virus Bangladesh strain glycoprotein G (Nipah virus, Bangladesh strain (NiV-BD)). The source holds these as a separate data set.

B1: 2A4 (antibody, V domains shown)
VH: QVQLQESGPGLVKPSETLSLTCPVSGASISSHWWTWIRQPPGKGLEWIGEIHGNSGSTNYNPSLKSRVTISKDASKNHFSLKLSSVTAADTAVYYCARDGHLGILVVFATSRFDVWGPGVLVTVSS
VL: DIQMTQSPSSLSASVGDTVTITCQASQGIANNLNWYQQKPGKAPKLLIYRASSLQSGIPSRFSGSGSGTDYTLTISSLQPEDFATYYCQQGYTYPRTFGQGTKVEIKT
In the case of B1, the values for the EC50 in test [1], in test [2] and in test [6] were 0.0112 µg/mL, 0.00737 µg/mL and 0.0045 µg/mL, respectively. In addition, the “percent neutralisation of NiV-MY pseudovirus at 1 µg/mL” value in test [3] is about 100%. Moreover, the “IC50, neutralisation of HeV pseudovirus (HIV backbone, luciferase, 293T cells)” value (shortened to “IC50, neutralisation of HeV pseudovirus”) in test [4] turned out to be 0.029 µg/mL. The “percent neutralisation of HeV pseudovirus at 1 µg/mL” value in [4] is about 100%. In [5], this molecule displayed a percent neutralisation of NiV-BD pseudovirus at 1 µg/mL of 100%.

B2: 1E5 (antibody, V domains shown)
VH: VQLQESGPGVVKPSETLSLTCAVSGGSISDTYRWSWIRQPPGKGLEWIGYIYGSATSTYYNPSLSSRVTISKDMSKNQFSLNLNSVTAADTAVYYCARDYQYYYSGSYPTPHNWFDVWGPGVLVTVSS
VL: DIQMTQSPSSLSASVGDRVTITCRASQGIIDYLSWYQQKPGKAPKLLISTASNLESGVPSRFSGSGSGTEFTLTISSLQPEDFATYSCLQGYTTPYTFGQGTKVEIKT
On to B2, for which the EC50 in [1] is 0.00085 µg/mL; in [2] it was 0.00034 µg/mL; in [6], 0.0026 µg/mL. For the same molecule, the “IC50 (read off the curve)” value was about 0.1 µg/mL in test [7]; 0.04 µg/mL in [8]; about 0.06 µg/mL in [9]; about 0.2 µg/mL in [10]; 0.06 µg/mL in test [11]. In test [3], the “percent neutralisation of NiV-MY pseudovirus at 1 µg/mL” value is about 100%. The “IC50, neutralisation of HeV pseudovirus” value in test [4] is 0.00574 µg/mL. For the same molecule, in [4], the “percent neutralisation of HeV pseudovirus at 1 µg/mL” value is about 100%. In test [5], this molecule came in with a percent neutralisation of NiV-BD pseudovirus at 1 µg/mL of 100%. In addition, the Kd was under 0.001 nM in test [12], 0.785 nM in test [13] and 0.171 nM in [14].

B3: 2E7 (antibody, V domains shown)
VH: VQLQESGPGLVKPSETLSLTCSVSGGSISISNWWSWIRQSPGKGLEWIGYIYGSSGSTLYNPSLKSRVSISTDTSKNQFSLKLRSVTAADTAVYYCASPSIAATGDFDYWGQGVLVTVSS
VL: QSVLTQPPSASGAPGQSVTISCSGSSSNIGGNNVYWYQQLPGTAPKLLIYSSNQRPSGVPDRFSGSKSGTSASLAITGLRSEDEADYFCAVWDDSLGSPFFGGGTRLTVLR
notes: copies: 2 + 2
B3: the EC50 in test [1] came out at 0.0267 µg/mL; in [2], 0.0701 µg/mL.

B4: 1B6 (antibody, V domains shown)
VH: VQLQESGPGPVKPSETLSLTCTVSGGSMSRGYDWNWIRQPPGKGLEWIGYIGDDGGRSNYNPSLKSRVTISKDSSKNQFSLKLGSVSAADTAVYYCARALRAIWYNSGWFYNSLDVWGRGVLVTVSS
VL: DIVLTQSPASLAVSPGQRATITCRASEGVSVFGRDLIHWYQQKPGQPPKLLIYQTSNRDTGVPARFSGSGSGTDFTLTINPVEADDAADYYCLQSKNSYSFGQGTKVEIKT
Regarding B4, the EC50 in test [1] was 0.0639 µg/mL; in [2], 0.0529 µg/mL; in [6], 0.0284 µg/mL. The “percent neutralisation of NiV-MY pseudovirus at 1 µg/mL” value in test [3] is about 100%. Besides, in test [4], the “IC50, neutralisation of HeV pseudovirus” value worked out at 0.0163 µg/mL. Moreover, the “percent neutralisation of HeV pseudovirus at 1 µg/mL” value in test [4] was about 100%. In [5], this molecule displayed a percent neutralisation of NiV-BD pseudovirus at 1 µg/mL of 100%.
